Experimental data as given in publication doi:10.1101/2020.03.16.993188 (bioRxiv, 2020).
Like-named read-outs stand apart in the source and are kept apart here.

B1: Synechocystis sp. PCC 6803 GCS P-protein (glycine decarboxylase), recombinant (enzyme)
chain: MPNLEPAVVVPTSEAIAVDLTKLEEKLAPADSFLDRHLGPGETEQRQMLQTLGFDTLGDLIDQAVPPAIRFPRSLQLPASQSEYGAIAQLKSIASKNQVFRSYIGMGYYDTITPPVIQRNILENPGWYTAYTPYQAEIAQGRLEALLNFQTMVMDLTGLEIANASLLDEGTAAAEAMALSYGVSKSKANAFFVAQDCHPQTIEVIKTRANPLGIEVIVGDHHTFSFSTSIFGALLQYPATDGAVYDYRSFIDKAHQHQALVTLAADPLSLTLLTPPGELGADIAVGSTQRFGIPLGYGGPHAAYFATKAEYQRKMPGRIVGVSKDAHGNPALRLALQTREQHIRRDKATSNICTAQVLLAVMASMYGVYHGSTGLKNIALRIHQLTVLLAIGLKRLNYSLNNDYFFDTLRVGVGEQSAPAILKAAEGRGINLRPLVPGEVGISLDETVTVQDLLDLWQVFAGKDNLPFTPEELWSEVKTSFPADLTRQSLYLQDAVFNQYHSETELLRYLHQLESKDLALNTSMIPLGSCTMKLNATAEMMPVTWPEFGKIHPFAPAGQTEGYQILFAQLEAWLGEITGFDAISLQPNAGSQGEYAGLQVIRQYHLSRGEEQRNICLIPESAHGTNPASAVMCGMQVVPVKCDGEGNIDVEDLTSKAEKYGDRLAALMVTYPSTHGVFEATIGTICDIVHRFGGEVYMDGANMNAQVGLCRPADFGADVCHLNLHKTFCIPHGGGGPGMGPIGVKSHLQAFLPRTSLNSTAELQAEDQSIGMISAAPYGSASILVISWMYIAMMGPQGLTKATEVAILSANYMAKRLENYYPILFRGNNELVAHECILDLRPLKKQAAIEVEDVAKRLMDFGFHAPTVSWPVLGTMMVEPTESESLGELDRFCDAMIAIYQEAQAITHGEIDPADNPLKNAPHTAQSLICGEWNHPYSQEEAAYPAPWTKQFKFWPAVGRINNTYGDRHLVCSCEGMEAYKEG
B2: Synechocystis sp. PCC 6803 GCS L-protein (dihydrolipoamide dehydrogenase), recombinant (enzyme)
chain: MSQDFDYDLVIIGAGVGGHGAALHAVKCGLKTAIIEAKDMGGTCVNRGCIPSKALLAASGRVREMSDQDHLQQLGIQINGVTFTREAIAAHANDLVSKIQSDLTNSLTRLKVDTIRGWGKVSGPQEVTVIGDNETRILKAKEIMLCPGSVPFVPPGIEIDHKTVFTSDEAVKLETLPQWIAIIGSGYIGLEFSDVYTALGCEVTMIEALPDLMPGFDPEIAKIAERVLIKSRDIETYTGVFATKIKAGSPVEIELTDAKTKEVIDTLEVDACLVATGRIPATKNLGLETVGVETDRRGFIEVNDQMQVIKDGKPVPHLWAVGDATGKMMLAHAASGQGVVAVENICGRKTEVDYRAIPAAAFTHPEISYVGLTEAQAKELGEKEGFVVSTAKTYFKGNSKALAEKETDGIAKVVYRQDTGELLGAHIIGIHASDLIQEAAQAIADRKSVRELAFHVHAHPTLSEVLDEAYKRAV
B3: Synechocystis sp. PCC 6803 GCS T-protein (aminomethyltransferase), recombinant (enzyme)
chain: MANLFPALRTPLYNLITEQTTKLTTFGGWEMPVQFAGLKQEHQAVREKVGMFDISHMGKFVLTGQKVLAALQSLVPSDLDRLTPGKAQYTVLLNAQGGIIDDIIVYDQGKNPEGQERVTLIVNAATTVKDKQWLLEHLPEEIDFQDLSREKVLIALQGPEALTILQPLVDQNLGELPAFGHLEAEFLREKAFIARTGYTGEDGFEIMVSPEVGKQLWQTFGSKGVTPCGLGARDTLRLEAGMGLYGQDMNDETTPLEAGLGWLVHLDSKGDFIGRAVLTEQKANGVEKRLVGLEMLAKQIARHDYPILHNGEIMGIVTSGTLSPTLQKAIALGYVPTELAKVGQELEVEVRGKTYGIKVVKKLFYRSEQKPR

Legend:
[1] = biological target: B3; experiment: SEC
SEC [2] = biological target: the molecule itself; experiment: SEC
[3] = biological target: B2; experiment: molecular mass cut-off filtration
[4] = biological target: B1; experiment: molecular mass cut-off filtration
[5] = biological target: B3; experiment: SEC; remark: listed apart in the source
SEC [6] = biological target: the molecule itself; experiment: SEC; remark: listed apart in the source
native gel or EMSA = biological target: the molecule itself; experiment: native gel or EMSA

Row | Binder | stoichiometry N [1] [H per T] | stoichiometry N (SEC [2]) | stoichiometry N [3] | binding result [4] | stoichiometry N [5] [H per T] | stoichiometry N (SEC [6]) | binding result (native gel or EMSA)
1 | Synechocystis sp. PCC 6803 GCS H-protein, recombinant, lipoylated holoprotein (natural protein, lipoyl cofactor on the lipoyl-binding lysine (full lipoylation confirmed by native PAGE); residue number not given) MELEHPDDLYYLDSHEYVRFDGETATIGLSAFAVDELGDIVFVELPEEGDKVEFEQSMGAVESVKAASDLYSPVTGTVIEKNSALEDQPELLNQDPYGEEGWLIKVRLDDVEDAKEGLMAAGDYRATLETGD | ~2 | 2 | ~26 H per L2 dimer | binds | ~4 | ~4 | 
2 | B1 |  |  | ~0.25 P2 dimer per L2 dimer |  |  | 2 | 
3 | B2 |  |  |  |  |  | 2 | 
4 | B3 |  |  | ~3 T per L2 dimer | binds |  |  | binds
